To fix the notation:
B1: OsGH3-13: GH3 protein, accession EAY81150 (protein, listed as Oryza sativa)
chain: MTSTSSENALDHDHDHDASSPAPATATAAALPPMIPACDPHDGPACLELIEVLTTRAAAVQRRVLAEVLAMNTGTDYLRRFLGDEVAAAAGGEDELAAAFKERVPVVEYEDVKPYIERIANGAPSSLISSKPITELLTSSGTSGGQPKLMPATEEELDRKTFLYNLLVPVMNKYVEGLDEGRGMYLLFVKPEITTASGMVARPVLTSYYKSRHFRRRPDSPYTRYTSPDAAILCPDSRQSMYAQLLCGLARRGEVLRVGAVFASAFLRAVKFLEGHWRALCADIRAGRADPAVVTDAACRGAVDAVLAARADPDLADAIAAECGGASWRGIVRRLWPRTKYIDVIVTGSMAQYIPLLEFYGGGLPLVSTMYASSESYFGINLRPLDPPEEVVYTLLPNMCYYEFIKVEKDGDGEKVRDGEVVDLVGVEVGAYYELVVTTFTGLYRYRVGDILQVAGFHNAAPQFRFVHRRNVVLSVDTDKTSEDDLLRAVTAAKPLLDPLSCVLAEYTAYADTSSIPGHYVLFWELTPSPSPPPPPCHDDANDAADIGEDKDKVAHVMAACCAAVEAGLDSVYRRCRSRDRSIGPLEIRVVAPGAFDALMDMCVSHGSSVNQYKTPRCIKHPDAIAVLEQRVVGRFFSDAVPHWEPLKVDGAAAAPATGSDQ
B2: AIGH3-4: GH3 protein, accession XP_002886679 (protein, listed as Arabidopsis lyrata)
chain: MAVDSPLQSRIASPTTSEKDMKALMFIEEMTRNPDSVQEKVLGEILSRNSNTEYLKRFDLNGAVDRKTFKSKVPVVMYEDLKTEIQRISNGDRSPILSSHPINEFLTSSGTSSGERKLMPTIEEDIHRRQLLGSLLMPVMNLYLPGLDKGKGLYFLFVKSESKTSGGLPARPALTSYYKSDHFKTSDLQNDYTSPREAILCSDSSQSMYAQMLCGLLMRHEVLRLGAVFPSGLLRAISFLQNNWKELAQDISTGILSSKIFDPAVNNRMSKILNKPDEELAEFLIGVCSQENWEGIITKIWPNTKYLDVIITGAMAQYIPMLEYYSGGLPIASTIYASSESYFGINLNPMCKPSEVSYTIMPNMAYFEFLPHNHDGDGALDETSLVELADVEVGKEYELVITTYAGLYRYRVGDILCVTGFHNSAPQFKFIRRKNVLLSIESDKTDEADLQKAVDNASRLLAEQGTSVIEYTSYAETKTIPGHYVIYWELLGRDQSNALPSDEVMAKCCLEMEESLNSVYRQSRVSDKSIGPLEIRVVQNGTFDELMDYAISRGSSINQYKVPRCVSLTPILELLDSRVVSAHFSTSLPHWSPERRH
B3: SmXP_002973755: GH3 protein, accession XP_002973755 (protein, listed as Selaginella moellendorffii)
chain: MNLEHKEREKQALQFIEKVTSEAAEVQSAVLSAILERNAHTEYLKRHGLNGRTDKTSFRQCLPVITYEDLEPEIQRIANGDTSPILSAHPISEFLTSSGTSAGQRKLMPTISEEFERRCLLYSLLMPVMNQYLPGLDQGKGMYLFFIKSEAKTPGGLLARPVLTSYYKSRYFTERPYDPCNVYTSPNETVLCPDAHQSMYCQLLCGLLQRHEVLRMGAVFASGFLRAIRFLETHWRELCDDIRAGGLNELVVDAAARRAVLALMPRPDPALADDIAEQCRKESWAGIIARLWPNTKYIDVIVTGTMAQYIPTLDYYSGGLPLVCTMYASSECYFGINLQPLCPPSEVSYTLLPNMAYFEFLPIKPKSGKSKAPRVPDPSELVELVDVKMGHEYELVITTYAGLCRYRVGDILRVTGFHNSAPQFAFVCRKNVVLSIDSDKTGEEDLAKAVRSATAGIESSYGARLIEYTSYADTTTIPGHYVLFWELRSSSPIPKDVLEECCLAIEESLDSVYRQGRVSDRSIGPLEIKVVKPGTFDQLMDYALSRGASINQYKTPRCVKFTPIVELLNARVVSSYFSPRLPKWSPVRPQWANSNGVH
B4: AIGH3-6: GH3 protein, accession XP_002866046 (protein, listed as Arabidopsis lyrata)
chain: MPEAPKIVALEVSDESLAEKNKNKLQFIEDVTTNADDVQRRVLEEILSRNADVEYLKRHGLDGRTDRETFKHVMPVVTYEDIQPEINRIANGDKSQILCSNPISEFLTSSGTSGGERKLMPTIEEELDRRSLLYSLLMPVMNQFVPGLDKGKGMYFLFIKSESKTPGGLPARPVLTSYYKSSHFKNRPFDPYNNYTSPNQTILCSDSYQSMYSQMLCGLCQHKEVLRVGAVFASGFIRAIKFLEKHWSELARDIRTGTLSSEITDLSVREAVGEILKPDPKLADFVESECRKTSWQGIITRLWPNTKYVDVIVTGTMSQYIPTLDYYSNGLPLVCTMYASSECYFGVNLRPLCKPSEVSYTLIPNMAYFEFLPVHRNSGVTSSISLPKALTEKEQQELVDLVDVKLGQEYELVVTTYAGLYRYRVGDVLSVAGFKNNAPQFSFICRKNVALSIDSDKTDEVELQNAVKNAVTHLVPFDASLSEYTSYAETSSIPGHYVLFWELCLNGNTPIPPSVFEDCCLTIEESLNSVYRQGRVSDKSIGPLEIKMVESGTFDKLMDYAISLGASINQYKTPRCVKFAPIIELLNSRVVDSYFSPKCPKWAPGHKQWGSN
B5: AIGH3-5: GH3 protein, accession XP_002869571 (protein, listed as Arabidopsis lyrata)
chain: MPEAPKKVSLEVFDLTLDQKNKQKLQLIEELTSNADQFQRRVLEEILSRNADVEYLRRHYLNGRTDRETFKNVMPVITYEDIQPEINRIANGDKSPILSSKPISEFLTSSGTSGGERKLMPTIEEELDRRSLLYSLLMPVMSQFVPGLENGKGMYFLFIKSESKTPGGLPARPVLTSYYKSSHFKERPYDPYTNYTSPNETILCSDSYQSMYSQMLCGLCQHQEVLRVGAVFASGFIRAIKFLEKHWTELVRDIRTGTLSSLITDPSVREAVSKILKPNSKLAEFVEFECKKSSWQGIITRLWPNTKYVDVIVTGTMSQYIPTLDYYSNGLPLVCTMYASSECYFGVNLRPLCKPSEVSYTLIPSMAYFEFLPVHRNNGVTNSINLPKALTEKEQQELVDLVDVKLGQEYELVVTTYAGLCRYRVGDLLRVTGFKNKAPQFSFICRKNVVLSIDADKTDEVELQNAVKNAVTYLVPFDASLSEYTSYADTSSIPGHYVLFWELCLDGNTPIPPSVFEDCCLTVEESFNTVYRQGRVSDKSIGPLEIKIVEPGTFDKLMDYAISLGASINQYKTPRCVKFAPIIELLNSRVVNSYLSPKCPKWVPGHKQWGSN
B6: AIGH3-1: GH3 protein, accession XP_002885948 (protein, listed as Arabidopsis lyrata)
chain: MAVDSNLSSPLGPPACEKDAKALRFIEEMTRNADTVQENLLAEILARNANTEYLRRFNLGGATDRDTFKTKIPVITYEDLQPEIQRIADGDRSPILSSHPISEFLTSSGTSAGERKLMPTIREELDRRQLLYSLLMPVMNLYVPGLDKGKGMYFLFVKSESKTPGGLPARPVLTSYYKSEHFRSRPYDPYNVYTSPNEAILCPDSFQSMYTQMLCGLLDRLSVLRVGAVFASGLLRAIRFLQLHWSRFANDIELGCLDSEITDPSIRQCMSGILKPDPVLAEFIRRECKSDNWERIITRIWPNTKYLDVIVTGAMAQYIPTLEYYSGGLPMACTMYASSECYFGLNLNPMSKPSEVSYTIMPNMAYFEFIPLGGTKAVELVDVKIGKEYELVVTTYAGLCRYRVGDILRVTGFHNSAPQFHFVRRKNVLLSIDSDKTDESELQKAVENASKILHEECGSRVAEYTSYADTSTIPGHYVLYWELLVRDGARQPSHETITRCCLEMEESLNSVYRQSRVADNSVGPLEIRVVRNGTFEELMDYAISRGASINQYKVPRCVNFTPIVELLDSRVVSAHFSPSLPHWTPERRRR
B7: AIGH3-3: GH3 protein, accession XP_002880486 (protein, listed as Arabidopsis lyrata)
chain: MTVDLPLRSPMNYSPSDKDVKALRFIEEMIRNVDFVQNKVIREILRRNSETEYLKRFGLKGFTDRKAFKTKVPVVTYDDLKPEIQRIANGDRSMILSSHPITEFLTSSGTSAGERKLMPTIEEDMDRRQLLYSLLMPVMNLYVPGLDKGKALYFLFVKTESKTPGGLPARPVLTSYYKSEQFKRRPYDPYNVYTSPNEAILCPDSSQSMYTQMLCGLLMRHEVLRLGAVFASGLLRAIGFLQTNWKELANDISTGTLSSRISDPAIKESMSKILTKPDQELADFITSVCGQDNNWEGIITKIWPNTKYLDVIVTGAMAQYIPMLEYYSGGLPMACTMYASSESYFGINLKPMCKPSEVSYTIMPNMAYFEFLPHEVPTGKSELVELADVEVGKEYELVITTYAGLNRYRVGDILQVTGFYNSAPQFKFVRRKNVLLSIESDKTDEAELQKAVENASVLLGEQGNRVIEYTSYAETKTIPGHYVIYWELLVKDQTNPPNDEVMARCCLEMEESLNSVYRQSRVADKSIGPLEIRVVKNGTFEELMDYAISRGASINQYKVPRCVSFTPIMELLDSRVVSTHFSPALPHWSPERRC

The first series can be described thus: LC-MS assay of GH3 conjugation of IAA with Asp or Glu. The class given is biochemical. Conditions: conjugation of IAA with Asp by recombinant GH3 protein; IAA-Asp product by LC-MS. An outline of the steps: (§1)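 Amino acid conjugates of IAA, 2,4-D or dicamba measured by LC-MS against conjugate standards, with kinetic parameters fitted to Michaelis-Menten initial velocities. Reactions: 5 mM each of auxin, ATP and Asp or Glu with 44 to 164 μg/mL purified His-tagged GH3 (E. coli-expressed), pH 8.0 Tris, 5 mM MgCl2, 1 mM DTT, 30 °C for 3 h.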
B1: the “kcat (hrs−1) IAA-Asp” value came to 10.812 h⁻¹.
Still for that read-out and setting: the value for B2 was 3.013 h⁻¹; that for B3 was 220.320 h⁻¹; that for B4 was 413.293 h⁻¹.
The same measure, in the same setting: the value for B5 was 429.073 h⁻¹; that for B6 was 436.828 h⁻¹; that for B7 was 3315.262 h⁻¹.

Staying with this series, now noted: conjugation of IAA with Glu by recombinant GH3 protein; IAA-Glu product by LC-MS.
As to B1, the “kcat (hrs−1) IAA-Glu” value is 494.321 h⁻¹.
The same measure, in the same setting: with B2 the figure was 0.000 h⁻¹; with B3, 9.285 h⁻¹.
For the molecule B4, the “kcat (hrs−1) IAA-Glu” value was found to be 20.881 h⁻¹.
On the same count and under the same terms, the value for B5 was 24.704 h⁻¹; that for B6 was 14.961 h⁻¹; that for B7 was 71.865 h⁻¹.

A short description of the next series: LC-MS assay of GH3 conjugation of 2,4-D with Asp or Glu. The class given is biochemical. Conditions: conjugation of 2,4-D with Asp by recombinant GH3 protein; 2,4-D-Asp product by LC-MS; 5 mM 2,4-D substrate. An outline of the steps: as §1
B1: the “kcat (hrs−1) 2,4-D-Asp” value worked out at 0.639 h⁻¹.
On the same count and under the same terms, the value for B2 was 0.040 h⁻¹; that for B3 was 1.076 h⁻¹; that for B4 was 1.300 h⁻¹.
Same read-out and setting: with B5 the figure was 1.586 h⁻¹.
For the molecule B6, the “kcat (hrs−1) 2,4-D-Asp” value worked out at 2.057 h⁻¹.
On the same count and under the same terms, with B7 the figure was 1.566 h⁻¹.

Staying with this series, now noted: conjugation of 2,4-D with Glu by recombinant GH3 protein; 2,4-D-Glu product by LC-MS; 5 mM 2,4-D substrate.
As for B1, the “kcat (hrs−1) 2,4-D-Glu” value is 5.237 h⁻¹.
The same measure, in the same setting: with B2 the figure was 0.006 h⁻¹; with B3, 0.431 h⁻¹.
With B4, the “kcat (hrs−1) 2,4-D-Glu” value worked out at 0.211 h⁻¹.
On the same count and under the same terms, the value for B5 was 0.421 h⁻¹; that for B6 was 0.525 h⁻¹.
On the same count and under the same terms, with B7 the figure was 0.172 h⁻¹.

(Values after US20150351390A1, “COMPOSITIONS AND METHODS FOR AUXIN-ANALOG CONJUGATION” (PIONEER HI-BRED INTERNATIONAL, INC., priority 2012, published 2015).)
